Measurements published in patent US20220289833A1 (BIOSION, published 2022).
Where a chain is given by its changes, count along the chain named. Where two headings read alike, the source gives them in different places. One block for each binder: values may come before it.

Assays:
[1] = biological target: T1, Recombinant human TSLP-his (human, UniProt Q969D9 29-159); assay: capture ELISA: antibody captured on anti-IgG Fc coat, biotin-labeled human TSLP-his detected with streptavidin-HRP
T1 construct: Prepared in-house; Amine-coupled to CM5 chip in SPR, loaded on APS sensors in Octet, biotin-labeled in the capture ELISA, unlabeled in the cell functional assays; also called human TSLP-his protein

[2] = biological target: T2, human TSLP-Fc (human, biotin-labeled); assay: cell-based ligand-blocking FACS: antibody pre-mixed with human TSLP-Fc; blocked binding to BAF3-3E6 cells expressing human TSLPR and IL7R; lower plateau at MFI about 550 (partial blocking)
T2 construct: Prepared in-house; also called biotin-labeled human TSLP-Fc; TSLP-Fc-biotin

[3] = biological target: T1, Recombinant human TSLP-his; assay: SPR, Biacore T200; TSLP-his amine-coupled to CM5 chip, antibody as analyte; 1:1 Langmuir fit
[4] = biological target: T2, human TSLP-Fc; assay: competitive ELISA: antibody pre-mixed with biotin-labeled human TSLP-Fc; blocked binding to coated human TSLPR-Fc/IL7Ra-Fc
[5] = biological target: T3, Recombinant cynomolgus monkey TSLP-his (cynomolgus monkey); assay: indirect ELISA on coated cynomolgus TSLP-his
T3 construct: Prepared in-house; Amine-coupled to CM5 chip in SPR, coated on plates in the indirect ELISA; also called cynomolgus TSLP; cynomolgus TSLP-his protein
T3 chain: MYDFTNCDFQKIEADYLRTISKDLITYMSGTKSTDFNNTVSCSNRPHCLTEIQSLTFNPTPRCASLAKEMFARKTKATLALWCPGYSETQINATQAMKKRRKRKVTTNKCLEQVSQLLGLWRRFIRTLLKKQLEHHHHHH

[6] = biological target: T2, human TSLP-Fc; assay: competitive ELISA: antibody pre-mixed with biotin-labeled human TSLP-Fc; blocked binding to coated human TSLPR-Fc/IL7Ra-Fc; remark: listed apart in the source
[7] = biological target: T1, Recombinant human TSLP-his; assay: capture ELISA: antibody captured on anti-IgG Fc coat, biotin-labeled human TSLP-his detected with streptavidin-HRP; remark: listed apart in the source
[8] = biological target: T1, Recombinant human TSLP-his; assay: as above; remark: listed apart in the source
[9] = biological target: T1, Recombinant human TSLP-his; assay: SPR, BIAcore; protocol of Example 2
[10] = biological target: T3, Recombinant cynomolgus monkey TSLP-his; assay: SPR, BIAcore; protocol of Example 2
[11] = biological target: T2, human TSLP-Fc; assay: cell-based ligand-blocking FACS: antibody pre-mixed with human TSLP-Fc; blocked binding to BAF3-3E6 cells expressing human TSLPR and IL7R
[12] = biological target: T1, Recombinant human TSLP-his; assay: capture ELISA: antibody captured on anti-IgG Fc coat, biotin-labeled human TSLP-his detected with streptavidin-HRP; remark: listed apart in the source
[13] = biological target: T2, human TSLP-Fc; assay: cell-based ligand-blocking FACS: antibody pre-mixed with human TSLP-Fc; blocked binding to BAF3-3E6 cells expressing human TSLPR and IL7R; remark: listed apart in the source
[14] = biological target: T2, human TSLP-Fc; assay: competitive ELISA: antibody pre-mixed with biotin-labeled human TSLP-Fc; blocked binding to coated human TSLPR-Fc/IL7Ra-Fc; remark: listed apart in the source
[15] = biological target: T1, Recombinant human TSLP-his; assay: BLI, Octet; TSLP-his loaded on APS biosensor, antibody in solution; 1:1 Langmuir fit
[16] = biological target: T2, human TSLP-Fc; assay: competitive ELISA: antibody pre-mixed with biotin-labeled human TSLP-Fc; blocked binding to coated Tezepelumab
[17] = biological target: T3, Recombinant cynomolgus monkey TSLP-his; assay: indirect ELISA on coated cynomolgus TSLP-his; the row head of the drawn table reads IC50 although the curve rises (EC50 values were reported)
[18] = biological target: T2, human TSLP-Fc; assay: competitive ELISA: antibody pre-mixed with biotin-labeled human TSLP-Fc; blocked binding to coated Tezepelumab; remark: listed apart in the source
[19] = biological target: T2, human TSLP-Fc; assay: as above; remark: listed apart in the source
[20] = biological target: T2, human TSLP-Fc; assay: cell-based ligand-blocking FACS: antibody pre-mixed with human TSLP-Fc; blocked binding to BAF3-3E6 cells expressing human TSLPR and IL7R; remark: listed apart in the source
[21] = biological target: T2, human TSLP-Fc; assay: as above; remark: listed apart in the source
[22] = biological target: T3, Recombinant cynomolgus monkey TSLP-his; assay: indirect ELISA on coated cynomolgus TSLP-his
[23] = biological target: T1, Recombinant human TSLP-his; assay: SPR, Biacore T200; protocol of Example 2
[24] = biological target: T3, Recombinant cynomolgus monkey TSLP-his; assay: SPR, Biacore T200; cynomolgus TSLP-his amine-coupled to CM5 chip, antibody as analyte
[25] = biological target: T1, Recombinant human TSLP-his; assay: capture ELISA: antibody captured on anti-IgG Fc coat, biotin-labeled human TSLP-his detected with streptavidin-HRP; remark: listed apart in the source
[26] = biological target: T2, human TSLP-Fc; assay: cell-based ligand-blocking FACS: antibody pre-mixed with human TSLP-Fc; blocked binding to BAF3-3E6 cells expressing human TSLPR and IL7R; remark: listed apart in the source
[27] = biological target: T2, human TSLP-Fc; assay: competitive ELISA: antibody pre-mixed with biotin-labeled human TSLP-Fc; blocked binding to coated Tezepelumab; remark: listed apart in the source
[28] = biological target: T2, human TSLP-Fc; assay: competitive ELISA: antibody pre-mixed with biotin-labeled human TSLP-Fc; blocked binding to coated human TSLPR-Fc/IL7Ra-Fc; remark: listed apart in the source
[29] = biological target: T1, Recombinant human TSLP-his; assay: SPR, Biacore T200; below the instrument limit, roughly calculated from the sensorgram

B3: Chimeric 1C5F12E9 (antibody, human IgG1, kappa, V domains shown)
VH: QVQLQQPGTELVKPGASVKMSCKASGYTFTTYWMHWVKQRPGQGLEWIGVIDPSDSDTTYNQKFKGKATLTVDTSSSTAYMQLSSLTSEDSAVYYCTRSLDGYYDYWGQGTTLTVSS
VL: DIQMTQSPASLSASVGETVTITCRPTENIYSYLAWYQQKQGKSPHLLVYFARTLAEGVPSRFSGSGSGTQFSLKINSLQPEDFGIYYCQHHYGTPWTFGGGTKLEIKR
notes: Human IgG1/kappa chimera expressed in 293F cells; also called chimeric 1C5F12E9 antibody
IC50 [6]: 100 pM
EC50 [8]: 448 pM
Kd [9]: < 51.7 pM
koff [9]: < 1e-05 s⁻¹
kon [9]: 193000 M⁻¹ s⁻¹
Kd [10]: < 26.1 pM
koff [10]: < 1e-05 s⁻¹
kon [10]: 383000 M⁻¹ s⁻¹
EC50 [12]: 161 pM
IC50 [13]: ~3120 pM
Kd [15]: 222 pM
koff [15]: 0.000159 s⁻¹
kon [15]: 715000 M⁻¹ s⁻¹
IC50 [16]: 291 pM
Kd [23]: 914 pM
koff [23]: 6.36e-05 s⁻¹
kon [23]: 69600 M⁻¹ s⁻¹
IC50 [20]: 627 pM
EC50 [22]: 91.8 pM

B4: Mouse D1C2H1H1 (antibody, V domains shown)
VH: QVTLKESGPGILQPSQTLSLTCSFSGFSLSTYGMGIGWIRLPSGKGLEWLASIWWDDNRYFNAALKSRLTISKDASKNQVFLKIASVDTADTATYYCARIEDGYYSYHSYWGQGTLVTVSA
VL: DIVLTQSPASLAVSLGQRATISCKASQSVDFDGDSYMNWFQQKPGQPPKLLIYAASNLVSGIPARFSGSGSGTDFTLNIHPVEEEDAATYYCQQIDEDPYTFGGGTKLEIE
notes: Mouse hybridoma mAb
Kd [24]: 7230 pM
EC50 [1]: 170 pM
Kd [3]: < 14.9 pM
koff [3]: < 1e-05 s⁻¹
kon [3]: 672000 M⁻¹ s⁻¹
IC50 [18]: 120 pM
IC50 [4]: 114 pM
IC50 [21]: 2140 pM
EC50 [5]: 4180 pM

B5: hu1C5F12E9-V8 (IgG4) (antibody)
heavy: not shown
light: DIQMTQSPSSLSASVGDRVTITCRPTENIYSYLAWYQQKPGKAPKLLIYFARTLAEGVPSRFSGSGSGTDFTLTISSLQPEDFATYYCQHHYGTPWTFGGGTKVEIKRTVAAPSVFIFPPSDEQLKSGTASVVCLLNNFYPREAKVQWKVDNALQSGNSQESVTEQDSKDSTYSLSSTLTLSKADYEKHKVYACEVTHQGLSSPVTKSFNRGEC
notes: also called huC5F12E9-V8
IC50 [6]: 146 pM
Kd [9]: < 59.8 pM
Kd [10]: < 32.8 pM
EC50 [12]: 173 pM
IC50 [13]: 2380 pM
EC50 [25]: 124 pM
IC50 [26]: ~1100 pM
IC50 [16]: 381 pM
IC50 [27]: 1060 pM
EC50 [22]: 170 pM

B6: hu1C5F12E9-V8 (IgG1) (antibody)
heavy: not shown
light: B5 light
notes: Humanized, human IgG1/kappa
EC50 [25]: 116 pM
IC50 [26]: ~1120 pM
IC50 [27]: 780 pM
IC50 [28]: 707 pM

The remaining lines, values ahead:

EC50 [1]: 126 pM
IC50 [2]: 1830 pM
Kd [3]: 180 pM
koff [3]: 3.09e-05 s⁻¹
kon [3]: 172000 M⁻¹ s⁻¹
IC50 [4]: 500 pM
binding result [5]: no binding (tested: about 67 nM)
B1: Mouse D1D8H9F7 (antibody, V domains shown)
VH: QVQLQQSGADLVRPGSSVKISCKTSGFAFSSYYMNWVKQRPGQGLEWIGQIYPGDGETNYNGKFKDKATLTADKSSSTVYMQLSSLTSEDSAVYFCARAGYSDYVYAMDYWGQGTSVTVSS
VL: EIVLTQSPALMAASPGEKVTIICSVSSSITSSNLHWYQQKSETSPKPWIYGTSNLASGVPVRFSGSGSGTSYSLTISSMEAEDAATYYCQQWSSFPLTFGSGTKLEIK
notes: Mouse hybridoma mAb

IC50 [6]: 139 pM
EC50 [7]: 160 pM
EC50 [8]: 360 pM
Kd [9]: < 96.6 pM
koff [9]: < 1e-05 s⁻¹
kon [9]: 104000 M⁻¹ s⁻¹
Kd [10]: < 34.6 pM
koff [10]: < 1e-05 s⁻¹
kon [10]: 289000 M⁻¹ s⁻¹
IC50 [11]: 625 pM
EC50 [12]: 151 pM
IC50 [13]: 2410 pM
IC50 [14]: 694 pM
EC50 [1]: 146 pM
Kd [15]: 226 pM
koff [15]: 0.000135 s⁻¹
kon [15]: 600000 M⁻¹ s⁻¹
Kd [3]: < 110 pM
koff [3]: < 1e-05 s⁻¹
kon [3]: 91100 M⁻¹ s⁻¹
IC50 [16]: 366 pM
EC50 [17]: 407 pM
IC50 [18]: 262 pM
IC50 [19]: 150 pM
IC50 [20]: 514 pM
IC50 [4]: 391 pM
IC50 [21]: 1630 pM
EC50 [22]: 202 pM
EC50 [5]: 100 pM
B2: mouse 1C5F12E9 (antibody, V domains shown)
VH: B3 VH
VL: DIQMTQSPASLSASVGETVTITCRPTENIYSYLAWYQQKQGKSPHLLVYFARTLAEGVPSRFSGSGSGTQFSLKINSLQPEDFGIYYCQHHYGTPWTFGGGTKLEIK
notes: also called mouse anti-TSLP 1C5F12E9 antibody

EC50 [25]: 110 pM
IC50 [26]: ~1140 pM
IC50 [27]: 806 pM
IC50 [28]: 758 pM
B7: hu1C5F12E9-V14 (IgG1) (antibody)
heavy: not shown
light: B5 light with A43S
notes: Humanized, human IgG1/kappa

IC50 [6]: 123 pM
Kd [9]: < 61 pM
koff [9]: < 1e-05 s⁻¹
kon [9]: 164000 M⁻¹ s⁻¹
Kd [10]: < 32.2 pM
koff [10]: < 1e-05 s⁻¹
kon [10]: 311000 M⁻¹ s⁻¹
EC50 [12]: 169 pM
koff [29]: ~3.21e-06 s⁻¹
IC50 [13]: ~3070 pM
EC50 [25]: 102 pM
IC50 [26]: ~1090 pM
IC50 [16]: 403 pM
Kd [23]: < 95.6 pM
koff [23]: < 1e-05 s⁻¹
kon [23]: 105000 M⁻¹ s⁻¹
IC50 [27]: 909 pM
EC50 [22]: 151 pM
IC50 [28]: 958 pM
B8: hu1C5F12E9-V14 (IgG4) (antibody)
heavy: not shown
light: B5 light with A43S
notes: also called huC5F12E9-V14
